One block for each binder: values may come before it.
Experiments:
[1] = biological target: T1, 4H2518-bA; assay: two-hybrid library CCNG1;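 also: natural log of median RNA to DNA barcode read ratio; higher means stronger binding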
T1 chain: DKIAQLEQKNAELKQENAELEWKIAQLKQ

[2] = biological target: T2, 4H2585-bA; assay: two-hybrid library CCNG1;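 also: natural log of median RNA to DNA barcode read ratio; higher means stronger binding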
T2 chain: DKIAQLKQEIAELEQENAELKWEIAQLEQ

[3] = biological target: T3, 4H264-bA; assay: two-hybrid library CCNG1;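 also: natural log of median RNA to DNA barcode read ratio; higher means stronger binding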
T3 chain: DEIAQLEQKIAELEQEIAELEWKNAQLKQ

[4] = biological target: T4, 4H2760-bA; assay: two-hybrid library CCNG1;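 also: natural log of median RNA to DNA barcode read ratio; higher means stronger binding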
T4 chain: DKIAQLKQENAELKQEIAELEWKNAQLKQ

[5] = biological target: T5, 4H2859-bA; assay: two-hybrid library CCNG1;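 also: natural log of median RNA to DNA barcode read ratio; higher means stronger binding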
T5 chain: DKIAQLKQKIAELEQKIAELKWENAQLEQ

[6] = biological target: T6, 4H2931-bA; assay: two-hybrid library CCNG1;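 also: natural log of median RNA to DNA barcode read ratio; higher means stronger binding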
T6 chain: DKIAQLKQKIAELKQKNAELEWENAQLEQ

[7] = biological target: T7, 4H3041-bA; assay: two-hybrid library CCNG1
T7 chain: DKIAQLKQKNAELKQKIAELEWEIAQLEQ

[8] = biological target: T8, 4H3297-bA; assay: two-hybrid library CCNG1
T8 chain: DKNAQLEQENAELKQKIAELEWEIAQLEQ

[9] = biological target: T9, 4H3364-bA; assay: two-hybrid library CCNG1
T9 chain: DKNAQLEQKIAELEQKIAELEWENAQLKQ

[10] = biological target: T10, 4H3381-bA; assay: two-hybrid library CCNG1
T10 chain: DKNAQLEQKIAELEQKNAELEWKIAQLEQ

[11] = biological target: T11, 4H349-bA; assay: two-hybrid library CCNG1
T11 chain: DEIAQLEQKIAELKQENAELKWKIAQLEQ

[12] = biological target: T12, 4H56-bA; assay: two-hybrid library CCNG1
T12 chain: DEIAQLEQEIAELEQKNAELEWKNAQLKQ

[13] = biological target: T13, 4H730-bA; assay: two-hybrid library CCNG1
T13 chain: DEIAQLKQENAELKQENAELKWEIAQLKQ

[14] = biological target: T14, 4H796-bA; assay: two-hybrid library CCNG1
T14 chain: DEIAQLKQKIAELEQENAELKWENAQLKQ

[15] = biological target: T15, 4H932-bA; assay: two-hybrid library CCNG1
T15 chain: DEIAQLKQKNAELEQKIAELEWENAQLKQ

[16] = biological target: T16, 4H949-bA; assay: two-hybrid library CCNG1
T16 chain: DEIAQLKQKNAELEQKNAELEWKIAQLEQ

[17] = biological target: T17, O8-bN; assay: two-hybrid library CCNG1
T17 chain: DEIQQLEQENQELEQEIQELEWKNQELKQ

[18] = biological target: T18, P4A; assay: two-hybrid library CCNG1
T18 chain: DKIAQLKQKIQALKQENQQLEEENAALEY

[19] = biological target: T19, 4H2444-bA; assay: two-hybrid library CCNG1
T19 chain: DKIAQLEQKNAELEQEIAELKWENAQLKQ

[20] = biological target: T20, 4H492-bA; assay: two-hybrid library CCNG1
T20 chain: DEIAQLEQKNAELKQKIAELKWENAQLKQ

[21] = biological target: T21, P4A-bN; assay: two-hybrid library CCNG1
T21 chain: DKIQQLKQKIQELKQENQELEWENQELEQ

[22] = biological target: T22, P6A-bN; assay: two-hybrid library CCNG1
T22 chain: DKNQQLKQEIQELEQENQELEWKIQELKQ

[23] = biological target: T23, P7A-bN; assay: two-hybrid library CCNG1
T23 chain: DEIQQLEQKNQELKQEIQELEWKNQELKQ

[24] = biological target: T24, P8A-bN; assay: two-hybrid library CCNG1
T24 chain: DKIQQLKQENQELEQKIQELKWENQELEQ

[25] = biological target: T25, P9A-bN; assay: two-hybrid library CCNG1
T25 chain: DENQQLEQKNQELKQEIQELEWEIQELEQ

[26] = biological target: T26, 4H2238-AA; assay: two-hybrid library CCmax
T26 chain: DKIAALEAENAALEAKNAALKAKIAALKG

[27] = biological target: T27, 4H2513-AA; assay: two-hybrid library CCmax; settings: mean of both orientations
T27 chain: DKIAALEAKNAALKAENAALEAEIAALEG

[28] = biological target: T28, 4H2536-AA; assay: two-hybrid library CCmax; settings: mean of both orientations
T28 chain: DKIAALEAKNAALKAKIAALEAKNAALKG

[29] = biological target: T29, 4H2608-AA; assay: two-hybrid library CCmax; settings: mean of both orientations
T29 chain: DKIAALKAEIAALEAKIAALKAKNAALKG

[30] = biological target: T30, 4H2614-AA; assay: two-hybrid library CCmax; settings: mean of both orientations
T30 chain: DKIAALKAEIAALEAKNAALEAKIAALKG

[31] = biological target: T31, 4H2726-AA; assay: two-hybrid library CCmax; settings: mean of both orientations
T31 chain: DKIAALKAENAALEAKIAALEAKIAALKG

[32] = biological target: T32, 4H2935-AA; assay: two-hybrid library CCmax; settings: mean of both orientations
T32 chain: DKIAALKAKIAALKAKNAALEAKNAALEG

[33] = biological target: T33, 4H327-AA; assay: two-hybrid library CCmax; settings: mean of both orientations
T33 chain: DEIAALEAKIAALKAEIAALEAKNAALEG

[34] = biological target: T34, 4H3605-AA; assay: two-hybrid library CCmax; settings: mean of both orientations
T34 chain: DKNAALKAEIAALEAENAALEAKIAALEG

[35] = biological target: T35, 4H3625-AA; assay: two-hybrid library CCmax; settings: mean of both orientations
T35 chain: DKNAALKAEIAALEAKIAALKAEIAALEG

[36] = biological target: T36, 4H3664-AA; assay: two-hybrid library CCmax; settings: mean of both orientations
T36 chain: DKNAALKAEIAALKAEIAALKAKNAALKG

[37] = biological target: T37, 4H369-AA; assay: two-hybrid library CCmax; settings: mean of both orientations
T37 chain: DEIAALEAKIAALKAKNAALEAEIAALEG

[38] = biological target: T38, 4H3922-AA; assay: two-hybrid library CCmax; settings: mean of both orientations
T38 chain: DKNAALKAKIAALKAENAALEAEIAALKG

[39] = biological target: T39, 4H4033-AA; assay: two-hybrid library CCmax; settings: mean of both orientations
T39 chain: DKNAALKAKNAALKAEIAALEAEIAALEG

[40] = biological target: T40, 4H481-AA; assay: two-hybrid library CCmax; settings: mean of both orientations
T40 chain: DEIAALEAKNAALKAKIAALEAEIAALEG

[41] = biological target: T41, 4H55-AA; assay: two-hybrid library CCmax; settings: mean of both orientations
T41 chain: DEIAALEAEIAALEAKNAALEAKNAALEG

[42] = biological target: T42, 4H662-AA; assay: two-hybrid library CCmax; settings: mean of both orientations
T42 chain: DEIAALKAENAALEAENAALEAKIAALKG

[43] = biological target: T43, 4H2503-bN; assay: two-hybrid library CCNG1
T43 chain: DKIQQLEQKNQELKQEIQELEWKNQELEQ

[44] = biological target: T44, 4H2588-bN; assay: two-hybrid library CCNG1
T44 chain: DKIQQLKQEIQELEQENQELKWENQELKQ

[45] = biological target: T45, 4H2692-bN; assay: two-hybrid library CCNG1
T45 chain: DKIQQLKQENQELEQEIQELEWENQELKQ

[46] = biological target: T46, 4H2717-bN; assay: two-hybrid library CCNG1
T46 chain: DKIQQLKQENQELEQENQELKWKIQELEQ

[47] = biological target: T47, 4H2839-bN; assay: two-hybrid library CCNG1
T47 chain: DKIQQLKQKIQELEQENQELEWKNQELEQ

[48] = biological target: T48, 4H2915-bN; assay: two-hybrid library CCNG1
T48 chain: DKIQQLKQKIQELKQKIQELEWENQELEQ

[49] = biological target: T49, 4H3057-bN; assay: two-hybrid library CCNG1
T49 chain: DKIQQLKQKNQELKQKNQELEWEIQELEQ

[50] = biological target: T50, 4H319-bN; assay: two-hybrid library CCNG1
T50 chain: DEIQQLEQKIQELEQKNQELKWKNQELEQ

[51] = biological target: T51, 4H3277-bN; assay: two-hybrid library CCNG1
T51 chain: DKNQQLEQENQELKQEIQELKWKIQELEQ

[52] = biological target: T52, 4H348-bN; assay: two-hybrid library CCNG1
T52 chain: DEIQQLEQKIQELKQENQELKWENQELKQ

[53] = biological target: T53, 4H40-bN; assay: two-hybrid library CCNG1
T53 chain: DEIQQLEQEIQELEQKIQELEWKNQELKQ

[54] = biological target: T54, 4H477-bN; assay: two-hybrid library CCNG1
T54 chain: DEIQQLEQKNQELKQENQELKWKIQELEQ

[55] = biological target: T55, 4H492-bN; assay: two-hybrid library CCNG1
T55 chain: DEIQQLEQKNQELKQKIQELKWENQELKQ

[56] = biological target: T56, 4H741-bN; assay: two-hybrid library CCNG1
T56 chain: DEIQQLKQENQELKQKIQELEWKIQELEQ

[57] = biological target: T57, O4-bS; assay: two-hybrid library CCNG1
T57 chain: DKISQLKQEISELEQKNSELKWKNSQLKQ

[58] = biological target: T58, 4H855-bH; assay: two-hybrid library CCNG1
T58 chain: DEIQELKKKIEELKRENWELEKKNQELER

[59] = biological target: T59, 4H918-bH; assay: two-hybrid library CCNG1
T59 chain: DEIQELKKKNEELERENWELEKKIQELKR

[60] = biological target: T60, 4H953-bH; assay: two-hybrid library CCNG1
T60 chain: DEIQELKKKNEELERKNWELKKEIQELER

[61] = biological target: T61, 4H968-bH; assay: two-hybrid library CCNG1
T61 chain: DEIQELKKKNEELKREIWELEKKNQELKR

Binder: DKIAQLEQKNAELKQENAELEWKIAQLKQ [4H2518-bA]
- interaction score [1]: 0.343
- interaction score [2]: -0.589
- interaction score [3]: -1
- interaction score [4]: -0.635
- interaction score [5]: -0.00645
- interaction score [6]: -0.288
- interaction score [7]: 0.486
- interaction score [8]: -0.628
- interaction score [9]: -0.361
- interaction score [10]: -0.773
- interaction score [11]: -0.372
- interaction score [12]: -1.52
- interaction score [13]: -0.626
- interaction score [14]: -1.33
- interaction score [15]: -1.08
- interaction score [16]: -0.976
- interaction score [17]: -2.05
- interaction score [18]: -1.32

Binder: DKIQQLKQKIQELKQENQELEWENQELEQ [P4A-bN]
- interaction score [21]: -1.26
- interaction score [22]: -1.54
- interaction score [23]: -1.45
- interaction score [24]: -0.841
- interaction score [25]: -0.681

Binder: DKIQQLEQKNQELKQEIQELEWKNQELEQ [4H2503-bN]
- interaction score [43]: -0.645
- interaction score [44]: 0.453
- interaction score [45]: -2.06
- interaction score [46]: -1.42
- interaction score [47]: -0.436
- interaction score [48]: -0.299
- interaction score [49]: -0.657
- interaction score [50]: -0.708
- interaction score [51]: 0.0524
- interaction score [52]: 0.419
- interaction score [53]: -0.263
- interaction score [54]: -0.639
- interaction score [55]: 0.186
- interaction score [56]: -0.327
- interaction score [57]: -1.2

Second part, the binder after the results:

- interaction score [19]: 1.3
- interaction score [1]: -0.678
- interaction score [2]: 0.675
- interaction score [3]: 0.179
- interaction score [4]: 1.15
- interaction score [5]: -0.0526
- interaction score [6]: 0.114
- interaction score [7]: 0.922
- interaction score [8]: 0.252
- interaction score [9]: -0.57
- interaction score [10]: -0.537
- interaction score [11]: -0.457
- interaction score [20]: 1.66
- interaction score [12]: -1.91
- interaction score [13]: -0.297
- interaction score [14]: -0.412
- interaction score [15]: -1.36
- interaction score [16]: -0.993
Binder: DKIAQLEQKNAELEQEIAELKWENAQLKQ [4H2444-bA]

- interaction score [26]: -0.902
- interaction score [27]: 2.15
- interaction score [28]: -1.01
- interaction score [29]: -1.6
- interaction score [30]: -1.25
- interaction score [31]: -0.445
- interaction score [32]: -1.18
- interaction score [33]: -0.966
- interaction score [34]: -0.657
- interaction score [35]: -1.18
- interaction score [36]: -1.15
- interaction score [37]: 2.28
- interaction score [38]: 1.59
- interaction score [39]: 1.31
- interaction score [40]: 1.84
- interaction score [41]: -1.77
- interaction score [42]: 1.18
Binder: DKIAALEAENAALEAKNAALKAKIAALKG [4H2238-AA]

- interaction score [58]: -0.389
- interaction score [59]: -0.637
- interaction score [60]: -1.14
- interaction score [61]: 0.133
- interaction score [21]: -0.185
Binder: DEIQELKKKIEELKRENWELEKKNQELER [4H855-bH]

From paper PMC10397247
